Assay type in all cases: cell-based, human
One data set concerns A-SMase. The data set can be described thus: Acid sphingomyelinase activity in cell extracts, [14C]sphingomyelin substrate. The note with it: for Acid SMase activity: MG-63 WT 2.7, L-3 LacZ/sham 2.3, average of two batches; for Reduction in A-SMase activity: ribozyme-transfected cells compared to sham-transfected and untransfected controls. The method, then:
Confluent culture of cells were harvested, washed, and pellets lysed in buffer containing 0.1% Triton™ X-100, 25 mM Tris (pH 7.4) buffer, 5 mM EDTA, 1 mM phenylmethylsulfonylfluoride and 2 μg each of chymostatin, leupeptin, antipain, and pepstatin A. The activity levels of acid and neutral sphingomyelinase were measured in cell extracts (100 μg protein) in duplicate as described previously employing […] as the substrate.
Activities of A-SMase and N-SMase were also measured according to methods described in Chatterjee, S. and Ghosh, N. (1996) Glycobiology 6:303–311, incorporated herein by reference, with minor modifications. In brief, 5×10^6 MG63 cells were scraped from the culture plates, washed with PBS, and disrupted by repeated passage through a 25-gauge needle. Nuclei and cell debris were pelleted at 800×g for 5 min. Supernatant fluid was collected, and the protein concentration was measured using the Bio-Rad (Hercules, Calif.) protein detection kit. To measure SMase activity, 50 μg of protein was incubated for 90 min (the reaction was linear for up to 120 min) at 37° C. in buffer (200 μl final volume) containing 250 mM sodium acetate and 1 mM EDTA, pH 5.0, for A-SMase or 250 mM Tris-Cl, pH 7.4, with or without 6 mM MgCl2 for N-SMase, and 0.75 μl of [methyl-^14C]sphingomyelin (SM) (0.2 mCi/ml; 56.6 mCi/mmol). Radioactive phosphocholine produced from [^14C]SM was extracted with 800 μl of chloroform-methanol (2:1, vol/vol) and 100 μl of H2O. [^14C]phosphocholine in the aqueous phase was measured by scintillation counting.

For the next data set, the system named is N-SMase mRNA. Briefly: N-SMase mRNA by Northern analysis and RT-PCR in transfected MG63 clones. The method, then:
RNA was originally extracted from a single confluent (90%) T-75 flask using Trizol. […] Next, poly-A^+ RNA was extracted from 3 confluent T-75 flasks, loading 3.5 μg/lane. Northern gels were standard, using 1.2% agarose, 1×MOPS, and 6.5% formaldehyde. RNA was transferred to nylon membranes with a standard wick system. The cDNA probe was derived from the cDNA construct, pHH11. An EcoR-1/SpeI fragment, containing a three hundred base pair probe was prepared. This was radiolabeled with [^32P]-dCTP and the random primer labeling system.
Clone CC had no detectable N-SMase mRNA by Northern analysis, so RT-PCR was performed to quantitate the reduction. Compared to a control-transfected clone (WT), there was a 50% reduction in mRNA in clone CC (ribozyme). This was confirmed by western blot analysis of the transfected and control clones for N-SMase.

The subject of data set [1] is N-SMase. Briefly: N-SMase activity gel analysis of partially purified preparations. To be noted: CC mutant cells compared to control cells, FIG. 2. The method, then:
FIG. 2 depicts N-SMase activity in mutant and WT cells, as determined using gel analysis. Partially purified preparations of the MG-63 (WT) cell line and the mutant cell line CC were subjected to 7.5% polyacrylamide gel electrophoresis at 4° C. employing sodium lauryl sarcosine as the detergent. The gel was calibrated with pre-stained protein molecular weight standards (phosphorylase B, bovine serum albumin (BSA), and ovalbumin). Gel slices were excised and subjected to an N-SMase assay employing […] as the substrate.
N-SMase activity in mutant and WT cells (subjected to detergent extraction as described above), was determined using gel analysis. Partially purified preparations of the MG-63 (WT) cell line and the mutant cell line CC were subjected to 7.5% polyacrylamide gel electrophoresis at 4° C. employing sodium lauryl sarcosine as the detergent. The gel was calibrated with pre-stained protein molecular weight standards (phosphorylase B, bovine serum albumin (BSA), and ovalbumin; Bio-Rad). Gel slices were excised, transferred to glass tubes, and subjected to an N-SMase assay at pH 7.4 employing […] as the substrate.

Data set [2] deals with N-SMase. The data set can be described thus: TNF-α and Fas ligand induced N-SMase activity in WT and mutant cells. The note with it: for Basal activity of N-SMase: unstimulated CC cells, 2.7±0.1 in MG63 control cells, ±S.D., N=3. The protocol:
FIGS. 4A–4B depict the effects of incubation with TNF-α (FIG. 4A) and Fas ligand (FIG. 4B) over time on the activity of N-SMase in mutant and WT cells. Confluent cultures of WT (MG-63) and mutant (CC) cells were incubated with serum free medium with or without TNF-α ([…]) or Fas ligand (1 ng/ml). At the indicated intervals, cells were harvested, centrifuged, and lysed in buffer containing 0.1% Triton™ X-100, 25 mM Tris (pH 7.4), 5 mM EDTA, 1 mM phenylmethylsulfonyl fluoride (PMSF), and 2 μg each of chymostatin, leupeptin, antipain, and pepstatin A. 100 μl of a reaction mixture containing 50 mM Tris (pH 7.4), 5 mM MgCl2, 0.05% Triton™ X-100, 5 mM dithiothreitol (DTT) and 10 nmol [^14C] sphingomyelin (100,000 cpm) was added to 5–10 μl of cell lysate (100 μg protein). The basal activity of N-SMase was 2.7±0.1 nmol/mg protein/hr in MG63 cells and 0.67±0.1 nmol/mg protein/hr in CC cells. These levels were defined as 100% activity. Error bars indicate ±S.D. (N=3).
Tumor necrosis factor alpha (TNF-α) is known to induce programmed cell death through stimulation of sphingomyelinase activity and generation of ceramide. This example describes the ability of the ribozyme directed against N-SMase to inhibit this pathway. The effects of incubation with TNF-α and Fas ligand over time on the activity of N-SMase in mutant and WT cells are shown in FIGS. 4A and 4B, respectively. Confluent cultures of WT (MG-63) and mutant (CC) cells were incubated with serum free medium with or without TNF-α ([…]) or Fas ligand (1 ng/ml), and the activity of N-SMase was determined by measuring the cleavage of [^14C]sphingomyelin. At 0, 10, 20, 30, 40, 50, and 60 minutes, cells were harvested, centrifuged, and lysed in buffer containing 0.1% Triton™ X-100, 25 mM Tris (pH 7.4), 5 mM EDTA, 1 mM phenylmethylsulfonyl fluoride (PMSF), and 2 μg each of chymostatin, leupeptin, antipain, and pepstatin A. 100 μl of a reaction mixture containing 50 mM Tris (pH 7.4), 5 mM MgCl2, 0.05% Triton™ X-100, 5 mM dithiothreitol (DTT) and 10 nmol [^14C]sphingomyelin (100,000 cpm) was added to 5–10 μl of cell lysate (100 μg protein). The basal activity of N-SMase was 2.7±0.1 nmol/mg protein/hr in MG63 cells and 0.67±0.1 nmol/mg protein/hr in CC cells. These levels were defined as 100% activity.

B1: N-SMase ribozyme: U1 snRNA-derived hammerhead antisense ribozyme targeting N-SMase mRNA, expressed from vector pNSMRz; stably transfected MG63 clones CC and C-B (nucleic acid, listed as Homo sapiens)
chain: AUACUUACCUGGCAGGGGAGAUACCAUGAUCACGAAGGUGGUUUUCCCAGGGCGAGGCUUAUCCAUUGGCCUCCGGAUGUGCUGACCCCUGCGAUUUCCCCAAAUGUGGGAAACUCGACUGCAGAAUAUGUCAUCAUAUUGCCUGAUGAGUCCGUGAGGACGAAACCUCUUCACAUGAAAAAGUGGGGCUGCGUUCGCGCUUCCCCG
B1: the “Acid SMase activity” value with A-SMase (MG-63 clone C-B (mutant)) is on record as 2.2 nmol/mg protein/hr; in the data set on A-SMase (MG-63 clone CC (mutant)), 2.1 nmol/mg protein/hr. The entries for the “Reduction in A-SMase activity” value in the data set on A-SMase and with A-SMase (listed as ribozyme) were “unchanged” and “no discernable reduction”, respectively. Besides, the “N-SMase mRNA by Northern analysis” value in the data set with N-SMase mRNA (clone CC) is “no detectable”. Besides, the “Reduction in N-SMase mRNA by RT-PCR” value with N-SMase mRNA (clone CC compared to a control-transfected clone (WT)) was 50%. In the data set on N-SMase [1], the “Level of N-SMase activity in gel slices” value is “greatly reduced”. In the data set with N-SMase [2] (ribozyme cells stimulated with TNF-α and Fas-L, sham-transfected cells 4.0), the “N-SMase activity under cytokine stimulation” value is 0.75 nmol/mg protein/hr. Also, the “Change of N-SMase activity after addition of TNF-α” value in the data set with N-SMase [2] (ribozyme transfected cells, 0-60 min, FIG. 4A) is “no significant difference”. For the same molecule, the “Basal activity of N-SMase” value with N-SMase [2] was 0.67±0.1 nmol/mg protein/hr; in the data set on N-SMase [2] (listed as antisense ribozyme) it was 0.67 nmol/mg protein/hr.

The record behind these values is US7230094B2, “Neutral sphingomyelinase antisense ribozyme and uses thereof” (priority 2001, dated 2007).
